Test results published in publication PMC12748774 (Nature Communications, 2025).

Tests used:
[1] = target: ZIKV WT sE (recombinant soluble ectodomain of Zika virus envelope E protein, wild type) (Zika virus, Brazilian strain SPH2015 …, UniProt A0A0U3FSM8); test: BLI; details: both partners purified
[2] = target: T1, ZIKV CC_FLE sE (G5C/G102C), disulfide-linked dimer (Zika virus (Brazilian Zika SPH2015 …)); test: cryo-EM structure; details: both partners purified
T1 construct: source: Drosophila Schneider S2 cells, purified (His-tag column, SEC)

B1: OZ-D4_GL (germline-reverted OZ-D4, IgG1) (antibody, V domains shown)
VH: QVQLQESGPGLVKPSETLSLTCTVSGGSISSYYWSWIRQPPGKGLEWIGYIYYSGSTNYNPSLKSRVTISVDTSKNQFSLKLSSVTAADTAVYYCARYSSGWSFSFDIWGQGTRVTVSS
VL: QSALTQPASVSGSPGQSITISCTGTSSDVGSYNLVSWYQQHPGKAPKLMIYEGSKRPSGVSNRFSGSKSGNTASLTISGLQAEDEADYYCCSYAGSSTLVFGGGTKLTVL
Does B1 bind [1]?
Result: no binding (tested: 250 nM)

B2: SMZAb2 Fab (Fab, V domains shown)
VH: EVQLVQSGAEVKKPGSSVKVSCKAPGGTFSSYAMSWVRQAPGQGPEWVGGIVPVYGTSRYAQKFQGRGTITADESTSTVYLELSSLRSEDTALYYCARVRYYGSGTYYGGDAFDFWGQGTMVTVSS
VL: QTVVTQEPSFSVSPGGTVTLTCGLTSDSVSIHLYPSWYQQTPGQAPRALIYNTNTRSSGVPDRFSGSILGNKAALTITGAQADDESVYFCVVYMGSGIWVFGGGTKLTVL
notes: also called Fabs; source: 293F cells, co-transfected, purified (cOmplete His-Tag Purification Resin)
Which “stoichiometry N” value [2] does the source give for B2 here?
The value was 2.
